{"source": "FireProtDB (doi:10.1021/bi981698k)", "details": "Saccharomyces cerevisiae (strain ATCC 204508 / S288c), 25 °C, GdnHCl, CD, NaCl 40 mM", "key": {"[1]": {"details": "pH 4, acetate-HCl 20 mM, structure 1YCC"}, "[2]": {"details": "pH 5, acetate-HCl 20 mM, structure 1YCC"}, "[3]": {"details": "pH 5.8, MES 20 mM, structure 1YCC"}, "[4]": {"details": "pH 6.12, MES 20 mM, structure 1YCC"}, "[5]": {"details": "pH 6.5, MES 20 mM, structure 1YCC"}, "[6]": {"details": "pH 7.2, Tris 20 mM, structure 1YCC"}, "[7]": {"details": "pH 7.5, Tris 20 mM, structure 1YCC"}}}
{"substance": "Cytochrome c isoform 1 K79H, P00044", "values": [{"measurement": "denaturant m value", "setting": "[1]", "result": 3.33, "unit": "kcal/mol/M"}, {"measurement": "denaturant midpoint (higher = more stable)", "setting": "[1]", "result": 0.51, "unit": "M"}, {"measurement": "unfolding free energy", "setting": "[1]", "result": 1.71, "unit": "kcal/mol"}, {"measurement": "denaturant m value", "setting": "[2]", "result": 3.67, "unit": "kcal/mol/M"}, {"measurement": "denaturant midpoint (higher = more stable)", "setting": "[2]", "result": 0.98, "unit": "M"}, {"measurement": "unfolding free energy", "setting": "[2]", "result": 3.6, "unit": "kcal/mol"}, {"measurement": "denaturant m value", "setting": "[3]", "result": 3.54, "unit": "kcal/mol/M"}, {"measurement": "denaturant midpoint (higher = more stable)", "setting": "[3]", "result": 1.05, "unit": "M"}, {"measurement": "unfolding free energy", "setting": "[3]", "result": 3.7, "unit": "kcal/mol"}, {"measurement": "denaturant m value", "setting": "[4]", "result": 3.31, "unit": "kcal/mol/M"}, {"measurement": "denaturant midpoint (higher = more stable)", "setting": "[4]", "result": 1.09, "unit": "M"}, {"measurement": "unfolding free energy", "setting": "[4]", "result": 3.6, "unit": "kcal/mol"}, {"measurement": "denaturant m value", "setting": "[5]", "result": 3.14, "unit": "kcal/mol/M"}, {"measurement": "denaturant midpoint (higher = more stable)", "setting": "[5]", "result": 1.12, "unit": "M"}, {"measurement": "unfolding free energy", "setting": "[5]", "result": 3.52, "unit": "kcal/mol"}, {"measurement": "denaturant m value", "setting": "[6]", "result": 2.97, "unit": "kcal/mol/M"}, {"measurement": "denaturant midpoint (higher = more stable)", "setting": "[6]", "result": 1.15, "unit": "M"}, {"measurement": "unfolding free energy", "setting": "[6]", "result": 3.41, "unit": "kcal/mol"}, {"measurement": "denaturant m value", "setting": "[7]", "result": 3.2, "unit": "kcal/mol/M"}, {"measurement": "denaturant midpoint (higher = more stable)", "setting": "[7]", "result": 1.15, "unit": "M"}, {"measurement": "unfolding free energy", "setting": "[7]", "result": 3.68, "unit": "kcal/mol"}]}
{"substance": "Cytochrome c isoform 1 wild type, P00044", "values": [{"measurement": "denaturant m value", "setting": "pH 4, acetate-HCl 20 mM", "result": 4.1, "unit": "kcal/mol/M"}, {"measurement": "denaturant midpoint (higher = more stable)", "setting": "pH 4, acetate-HCl 20 mM", "result": 0.66, "unit": "M"}, {"measurement": "unfolding free energy", "setting": "pH 4, acetate-HCl 20 mM", "result": 2.72, "unit": "kcal/mol"}, {"measurement": "denaturant m value", "setting": "pH 4.5, acetate-HCl 20 mM", "result": 4.28, "unit": "kcal/mol/M"}, {"measurement": "denaturant midpoint (higher = more stable)", "setting": "pH 4.5, acetate-HCl 20 mM", "result": 0.96, "unit": "M"}, {"measurement": "unfolding free energy", "setting": "pH 4.5, acetate-HCl 20 mM", "result": 4.11, "unit": "kcal/mol"}, {"measurement": "denaturant m value", "setting": "pH 5, acetate-HCl 20 mM", "result": 4.42, "unit": "kcal/mol/M"}, {"measurement": "denaturant midpoint (higher = more stable)", "setting": "pH 5, acetate-HCl 20 mM", "result": 1.08, "unit": "M"}, {"measurement": "unfolding free energy", "setting": "pH 5, acetate-HCl 20 mM", "result": 4.77, "unit": "kcal/mol"}, {"measurement": "denaturant m value", "setting": "pH 5.8, MES 20 mM", "result": 4.84, "unit": "kcal/mol/M"}, {"measurement": "denaturant midpoint (higher = more stable)", "setting": "pH 5.8, MES 20 mM", "result": 1.09, "unit": "M"}, {"measurement": "unfolding free energy", "setting": "pH 5.8, MES 20 mM", "result": 5.28, "unit": "kcal/mol"}, {"measurement": "denaturant m value", "setting": "pH 6.12, MES 20 mM", "result": 4.86, "unit": "kcal/mol/M"}, {"measurement": "denaturant midpoint (higher = more stable)", "setting": "pH 6.12, MES 20 mM", "result": 1.16, "unit": "M"}, {"measurement": "unfolding free energy", "setting": "pH 6.12, MES 20 mM", "result": 5.66, "unit": "kcal/mol"}, {"measurement": "denaturant m value", "setting": "pH 6.5, MES 20 mM", "result": 4.45, "unit": "kcal/mol/M"}, {"measurement": "denaturant midpoint (higher = more stable)", "setting": "pH 6.5, MES 20 mM", "result": 1.23, "unit": "M"}, {"measurement": "unfolding free energy", "setting": "pH 6.5, MES 20 mM", "result": 5.44, "unit": "kcal/mol"}, {"measurement": "denaturant m value", "setting": "pH 7.2, Tris 20 mM", "result": 4.31, "unit": "kcal/mol/M"}, {"measurement": "denaturant midpoint (higher = more stable)", "setting": "pH 7.2, Tris 20 mM", "result": 1.09, "unit": "M"}, {"measurement": "unfolding free energy", "setting": "pH 7.2, Tris 20 mM", "result": 4.68, "unit": "kcal/mol"}, {"measurement": "denaturant m value", "setting": "pH 7.5, Tris 20 mM", "result": 4.92, "unit": "kcal/mol/M"}, {"measurement": "denaturant midpoint (higher = more stable)", "setting": "pH 7.5, Tris 20 mM", "result": 1.15, "unit": "M"}, {"measurement": "unfolding free energy", "setting": "pH 7.5, Tris 20 mM", "result": 5.66, "unit": "kcal/mol"}]}
